The results in this text go back to PMC7560607, “Synapse type-specific proteomic dissection identifies IgSF8 as a hippocampal CA3 microcircuit organizer” (Nature Communications, 2020).

The Kd is the constant that tells how readily two partners part at equilibrium. A low value points to higher affinity.

Assay [1] concerns the target T1, Tenascin-R, AP- or Fc-tagged (interactome library) ( (human or mouse sequence …, UniProt Q8BYI9 32-1358)).
T1 construct: In the BLI experiment only the Fc fusion stood, captured from conditioned medium of EXPI293 cells on anti-human Fc sensors; also called TenR; TenR-Fc/AP; source: Expi293 cells, transfected, conditioned medium used without purification; not shown: Fc (human IgG1) in the Fc fusion, C-terminal, kept; alkaline phosphatase (human) in the AP fusion, C-terminal, kept
T1 sequence (looked up): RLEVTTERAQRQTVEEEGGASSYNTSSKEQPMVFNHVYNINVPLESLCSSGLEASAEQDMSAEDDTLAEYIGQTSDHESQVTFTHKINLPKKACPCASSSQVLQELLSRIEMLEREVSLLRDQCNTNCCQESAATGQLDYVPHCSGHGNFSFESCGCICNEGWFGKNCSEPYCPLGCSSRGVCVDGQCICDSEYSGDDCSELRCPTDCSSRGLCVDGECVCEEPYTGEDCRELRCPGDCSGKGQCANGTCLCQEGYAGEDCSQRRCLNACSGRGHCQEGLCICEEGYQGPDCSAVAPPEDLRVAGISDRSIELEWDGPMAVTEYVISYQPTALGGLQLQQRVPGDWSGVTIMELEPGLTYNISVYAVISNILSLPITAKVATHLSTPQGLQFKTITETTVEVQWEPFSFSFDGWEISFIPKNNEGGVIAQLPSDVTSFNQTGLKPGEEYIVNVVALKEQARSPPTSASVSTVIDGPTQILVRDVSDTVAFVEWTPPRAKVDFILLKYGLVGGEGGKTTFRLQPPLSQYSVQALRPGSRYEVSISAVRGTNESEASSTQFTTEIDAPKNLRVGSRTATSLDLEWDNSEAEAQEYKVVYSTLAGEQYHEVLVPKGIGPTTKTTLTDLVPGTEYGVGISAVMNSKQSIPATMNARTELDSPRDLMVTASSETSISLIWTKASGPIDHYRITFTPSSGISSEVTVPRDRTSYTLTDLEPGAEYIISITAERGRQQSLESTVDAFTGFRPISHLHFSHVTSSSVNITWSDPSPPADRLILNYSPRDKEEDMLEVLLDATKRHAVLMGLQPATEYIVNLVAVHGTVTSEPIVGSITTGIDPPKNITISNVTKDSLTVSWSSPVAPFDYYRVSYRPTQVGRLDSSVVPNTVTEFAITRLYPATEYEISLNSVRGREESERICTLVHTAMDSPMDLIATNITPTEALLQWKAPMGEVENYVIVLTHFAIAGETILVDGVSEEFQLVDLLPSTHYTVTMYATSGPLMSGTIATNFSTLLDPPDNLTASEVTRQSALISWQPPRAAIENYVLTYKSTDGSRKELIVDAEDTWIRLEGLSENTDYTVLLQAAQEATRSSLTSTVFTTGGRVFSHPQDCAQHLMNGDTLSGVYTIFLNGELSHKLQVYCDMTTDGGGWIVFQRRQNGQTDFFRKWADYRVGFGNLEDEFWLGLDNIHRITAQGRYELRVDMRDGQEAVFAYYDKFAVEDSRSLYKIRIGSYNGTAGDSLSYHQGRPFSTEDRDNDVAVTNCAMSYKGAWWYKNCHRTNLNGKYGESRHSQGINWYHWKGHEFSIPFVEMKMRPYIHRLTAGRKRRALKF
The assay is described as follows: BLI; BLItz, RT; TenR-Fc captured from EXPI293 conditioned medium on anti-human Fc sensors; purified IgSF8 34-0.133 µM in twofold dilution; 10 mM Hepes pH 7.4, 150 mM NaCl, 1 mM CaCl2, 0.2% Tween20, 1% BSA; KD from response vs concentration; Fc-only sensor subtracted. As to conditions: one partner purified. (In general: In BLI a coated tip is dipped into the sample, and binding shifts an interference pattern.)

Assay [2] concerns the target T2, TenR-Fc (Tenascin-R fused to the Fc region of human IgG1) ( (human or mouse sequences …, UniProt Q8BYI9 32-1358)).
T2 construct: Tenascin-R, secreted ECM protein; also called Tenascin-R-Fc; source: EXPI293 cells, transfected, conditioned medium; not shown: Fc (human IgG1), C-terminal, kept
T2 sequence (looked up): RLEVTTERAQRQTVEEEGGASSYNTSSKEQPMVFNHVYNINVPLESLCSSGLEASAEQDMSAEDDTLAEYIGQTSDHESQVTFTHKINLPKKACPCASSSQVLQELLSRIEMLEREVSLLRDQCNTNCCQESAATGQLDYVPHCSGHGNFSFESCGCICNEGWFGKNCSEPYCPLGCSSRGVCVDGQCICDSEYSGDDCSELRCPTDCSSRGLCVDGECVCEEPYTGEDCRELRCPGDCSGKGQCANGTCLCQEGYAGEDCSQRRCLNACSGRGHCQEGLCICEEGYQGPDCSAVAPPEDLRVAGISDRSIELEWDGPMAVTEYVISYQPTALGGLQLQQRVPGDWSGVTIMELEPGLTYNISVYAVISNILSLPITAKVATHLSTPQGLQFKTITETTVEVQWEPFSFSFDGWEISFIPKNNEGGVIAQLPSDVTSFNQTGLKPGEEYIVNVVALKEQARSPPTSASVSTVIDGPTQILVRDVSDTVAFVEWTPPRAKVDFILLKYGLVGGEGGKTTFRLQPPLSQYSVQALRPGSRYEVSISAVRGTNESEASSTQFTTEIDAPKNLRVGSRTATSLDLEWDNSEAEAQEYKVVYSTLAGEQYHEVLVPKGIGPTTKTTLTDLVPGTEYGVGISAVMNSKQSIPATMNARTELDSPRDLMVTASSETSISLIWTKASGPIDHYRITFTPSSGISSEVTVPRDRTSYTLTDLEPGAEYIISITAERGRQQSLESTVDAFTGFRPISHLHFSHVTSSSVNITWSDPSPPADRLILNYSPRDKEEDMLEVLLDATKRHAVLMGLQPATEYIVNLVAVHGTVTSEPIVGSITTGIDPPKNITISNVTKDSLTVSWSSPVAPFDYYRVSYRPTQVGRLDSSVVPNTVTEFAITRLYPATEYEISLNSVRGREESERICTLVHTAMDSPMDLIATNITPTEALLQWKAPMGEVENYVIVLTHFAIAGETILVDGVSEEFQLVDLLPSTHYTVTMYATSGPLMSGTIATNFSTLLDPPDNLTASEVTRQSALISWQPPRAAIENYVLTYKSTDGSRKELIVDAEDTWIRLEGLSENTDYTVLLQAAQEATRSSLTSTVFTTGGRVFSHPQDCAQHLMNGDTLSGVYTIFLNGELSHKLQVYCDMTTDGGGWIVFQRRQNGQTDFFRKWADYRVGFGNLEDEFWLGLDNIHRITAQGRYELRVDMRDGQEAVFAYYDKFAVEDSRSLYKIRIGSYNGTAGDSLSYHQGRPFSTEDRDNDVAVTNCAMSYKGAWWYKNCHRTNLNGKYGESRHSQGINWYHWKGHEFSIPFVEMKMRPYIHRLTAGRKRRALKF
The assay is described as follows: BLI; BLItz, room temperature; TenR-Fc captured from conditioned medium on anti-human Fc biosensors; purified IgSF8 34-0.133 uM in twofold dilution; association in 10 mM Hepes pH 7.4, 150 mM NaCl, 1 mM CaCl2, 0.2% Tween20, 1% BSA; Fc-only sensor subtracted; binding response against concentration fitted as one site specific binding. As to conditions: one partner purified.

B1: purified IgSF8 (BLI analyte) (natural protein)
chain: RQVHVPRGPLYRVAGTAVSISCNVSDYEGPAQQDFEWFMYRPEAPATSLGIVSTKDSQFSYAVFGPRVASGDLQVQRLKGDSVVLKIARLQAQDSGFYECYTPSTDTQYLGNYSAKVELRVLPDELQVSAAPPGPRGRQAATSPSRLTVHEGQELALGCLAQTKTKKHTHLSVSFGRAIPEAPVGRATLQEVVGLRSDMAVEAGAPYAERLASGELRLSKEGTDRYRMVVGGAQAGDSGTYHCTAAEWIQDPDGSWVQVAEKRAVLAHVDVQTLSSQLAVTVGPGERRIGPGEPLELLCNVSGALPPPGRHAAYSVGWEMAPAGAPGPGRLVAQLDTEGIGSLGPGYEDRHIAMEKVASRTYRLRLEAARPADAGTYRCLAKAYVRGSGTRLREAASARSRPLPVHVREEGVVLEAVAWLAGGTVYRGETASLLCNISVRGGPPGLRLAASWWVERPEEGELSSGPAQLVGGVGQDGVAELGVRPGGGPVSVELVGPRSHRLRLHGLGPEDEGIYHCAPSAWVQHADYSWYQAGSARSGPVTVYPYTHAVDT
modifications: Same molecule as Sm1. Secreted ectodomain, likely N-glycosylated; limits by convention (UniProt extracellular domain without the signal peptide).
Consider B1, for which the Kd in assay [1] is ~1400 nM.

B2: IgSF8 (purified IgSF8 protein used as analyte in biolayer interferometry) (receptor)
chain: RQVHVPRGPLYRVAGTAVSISCNVSDYEGPAQQDFEWFMYRPEAPATSLGIVSTKDSQFSYAVFGPRVASGDLQVQRLKGDSVVLKIARLQAQDSGFYECYTPSTDTQYLGNYSAKVELRVLPDELQVSAAPPGPRGRQAATSPSRLTVHEGQELALGCLAQTKTKKHTHLSVSFGRAIPEAPVGRATLQEVVGLRSDMAVEAGAPYAERLASGELRLSKEGTDRYRMVVGGAQAGDSGTYHCTAAEWIQDPDGSWVQVAEKRAVLAHVDVQTLSSQLAVTVGPGERRIGPGEPLELLCNVSGALPPPGRHAAYSVGWEMAPAGAPGPGRLVAQLDTEGIGSLGPGYEDRHIAMEKVASRTYRLRLEAARPADAGTYRCLAKAYVRGSGTRLREAASARSRPLPVHVREEGVVLEAVAWLAGGTVYRGETASLLCNISVRGGPPGLRLAASWWVERPEEGELSSGPAQLVGGVGQDGVAELGVRPGGGPVSVELVGPRSHRLRLHGLGPEDEGIYHCAPSAWVQHADYSWYQAGSARSGPVTVYPYTHAVDT
modifications: Secreted ectodomain, likely N-glycosylated. Limits are the UniProt extracellular domain without the signal peptide. Mouse is inferred from the mouse IgSF8 cDNA (BC048387) and the mouse IgSF8-His used
For the molecule B2, the Kd in assay [2] came out at 1390 nM.
